Results taken from patent US20120277142A1 (HANALL BIOPHARMA, published 2012).

B1: TNFRI171-A22 (receptor)
chain: MDSVCPQGKYIHPQNNSICCTKCHKGTYLYNDCPGPGQDTDCRECESGSFTAMENFLPGCLSCSKCRKEMGQVEISSCTVDRDTVCGCRKNQYRHYWSENLFQCFNCSLCLNGTVHLSCQEKQNTVCTCHAGFFLRENECVSCSNCKKSLECTKLCLPQIENVKGTEDSGTT
B2: TNFRI171-A26 (receptor)
chain: MDSVCPQGKYIHPQNNSICCTKCHKGTYLYNDCPGPGQDTDCRECESGSFTAIPNFLPGCLSCSKCRKEMGQVEISSCTVDRDTVCGCRKNQYRHYWSENLFQCFNCSLCLNGTVHLSCQEKQNTVCTCHAGFFLRENECVSCSNCKKSLECTKLCLPQIENVKGTEDSGTT
B3: Met-TNFRI126 (receptor)
chain: MDSVCPQGKYIHPQNNSICCTKCHKGTYLYNDCPGPGQDTDCRECESGSFTASENHLRHCLSCSKCRKEMGQVEISSCTVDRDTVCGCRKNQYRHYWSENLFQCFNCSLCLNGTVHLSCQEKQNTVC
notes: also called Wild-type (TNFRI126); wild-type TNFRI
B4: TNFRI126-A27 (receptor)
chain: MDSVCPQGKYIHPQNNSICCTKCHKGTYLYNDCPGPGQDTDCRECESGSFTAIPNFLLGCLSCSKCRKEMGQVEISSCTVDRDTVCGCRKNQYRHYWSENLFQCFNCSLCLNGTVHLSCQEKQNTVC
notes: Met-TNFRI126 mutant made in E. coli
B5: TNFRI126-A25 (receptor)
chain: MDSVCPQGKYIHPQNNSICCTKCHKGTYLYNDCPGPGQDTDCRECESGSFTAIPNFLFACLSCSKCRKEMGQVEISSCTVDRDTVCGCRKNQYRHYWSENLFQCFNCSLCLNGTVHLSCQEKQNTVC
notes: as for B4
B6: TNFRI126-A22 (receptor)
chain: MDSVCPQGKYIHPQNNSICCTKCHKGTYLYNDCPGPGQDTDCRECESGSFTAMENFLPGCLSCSKCRKEMGQVEISSCTVDRDTVCGCRKNQYRHYWSENLFQCFNCSLCLNGTVHLSCQEKQNTVC
notes: as for B4
B7: TNFRI126-A26 (receptor)
chain: MDSVCPQGKYIHPQNNSICCTKCHKGTYLYNDCPGPGQDTDCRECESGSFTAIPNFLPGCLSCSKCRKEMGQVEISSCTVDRDTVCGCRKNQYRHYWSENLFQCFNCSLCLNGTVHLSCQEKQNTVC
notes: as for B4
B8: TNFRI126-A24 (receptor)
chain: MDSVCPQGKYIHPQNNSICCTKCHKGTYLYNDCPGPGQDTDCRECESGSFTAIPNFLIACLSCSKCRKEMGQVEISSCTVDRDTVCGCRKNQYRHYWSENLFQCFNCSLCLNGTVHLSCQEKQNTVC
notes: as for B4
B9: TNFRI126-A30 (receptor)
chain: MDSVCPQGKYIHPQNNSICCTKCHKGTYLYNDCPGPGQDTDCRECESGSFTAIPNFLPACLSCSKCRKEMGQVEISSCTVDRDTVCGCRKNQYRHYWSENLFQCFNCSLCLNGTVHLSCQEKQNTVC
notes: as for B4
B10: TNFRI126-A21 (receptor)
chain: MDSVCPQGKYIHPQNNSICCTKCHKGTYLYNDCPGPGQDTDCRECESGSFTAIENFLPGCLSCSKCRKEMGQVEISSCTVDRDTVCGCRKNQYRHYWSENLFQCFNCSLCLNGTVHLSCQEKQNTVC
notes: as for B4
B11: TNFRI126-A20 (receptor)
chain: MDSVCPQGKYIHPQNNSICCTKCHKGTYLYNDCPGPGQDTDCRECESGSFTAEENFLPACLSCSKCRKEMGQVEISSCTVDRDTVCGCRKNQYRHYWSENLFQCFNCSLCLNGTVHLSCQEKQNTVC
notes: as for B4
B12: TNFRI126-A23 (receptor)
chain: MDSVCPQGKYIHPQNNSICCTKCHKGTYLYNDCPGPGQDTDCRECESGSFTAIPNFLLACLSCSKCRKEMGQVEISSCTVDRDTVCGCRKNQYRHYWSENLFQCFNCSLCLNGTVHLSCQEKQNTVC
notes: as for B4
B13: TNFRI126-A29 (receptor)
chain: MDSVCPQGKYIHPQNNSICCTKCHKGTYLYNDCPGPGQDTDCRECESGSFTAIPNFLFGCLSCSKCRKEMGQVEISSCTVDRDTVCGCRKNQYRHYWSENLFQCFNCSLCLNGTVHLSCQEKQNTVC
notes: as for B4
B14: TNFRI126-S53 (receptor)
chain: MDSVCPQGKYIHPQNNSICCTKCHKGTYVYNDCPGPGQDTDCRECESGSFTAIENFLPACLSCSKCRKEMGQVEISSCTVDRDTVCGCRKNQYRHYWSENLFQCFNCSLCLNGTVHLSCQEQQNTVC
notes: Met-TNFRI126 superlead mutant made in E. coli
B15: TNFRI126-S60 (receptor)
chain: MDSVCPQGKYIHPQNNSICCTKCHKGTYVYNDCPGPGQDTDCRECESGSFTAHENFLPACLSCSKCRKEMGQVEISSCTVDRDTVCGCRKNQYRHYWSENLFQCFNCSLCLNGTVHLSCQENQNTVC
notes: as for B14
B16: TNFRI126-S54 (receptor)
chain: MDSVCPQGKYIHPQNNSICCTKCHKGTYVYNDCPGPGQDTDCRECESGSFTAIENFLPACLSCSKCRKEMGQVEISSCTVDRDTVCGCRKNQYRHYWSENLFQCFNCSLCLNGTVHLSCQENQNTVC
notes: as for B14
B17: TNFRI126-S47 (receptor)
chain: MDSVCPQGKYIHPQNNSICCTKCHKGTYVYNDCPGPGQDTDCRECESGSFTAMENFLPGCLSCSKCRKEMGQVEISSCTVDRDTVCGCRKNQYRHYWSENLFQCFNCSLCLNGTVHLSCQEKQNTVC
notes: as for B14
B18: TNFRI126-S57 (receptor)
chain: MDSVCPQGKYIHPQNNSICCTKCHKGTYVYNDCPGPGQDTDCRECESGSFTAMENFLPACLSCSKCRKEMGQVEISSCTVDRDTVCGCRKNQYRHYWSENLFQCFNCSLCLNGTVHLSCQENQNTVC
notes: as for B14
B19: TNFRI126-S59 (receptor)
chain: MDSVCPQGKYIHPQNNSICCTKCHKGTYVYNDCPGPGQDTDCRECESGSFTAHENFLPACLSCSKCRKEMGQVEISSCTVDRDTVCGCRKNQYRHYWSENLFQCFNCSLCLNGTVHLSCQEQQNTVC
notes: as for B14
B20: TNFRI126-S46 (receptor)
chain: MDSVCPQGKYIHPQNNSICCTKCHKGTYVYNDCPGPGQDTDCRECESGSFTAIENFLPGCLSCSKCRKEMGQVEISSCTVDRDTVCGCRKNQYRHYWSENLFQCFNCSLCLNGTVHLSCQEKQNTVC
notes: as for B14
B21: TNFRI126-S63 (receptor)
chain: MDSVCPQGKYIHPQNNSICCTKCHKGTYVYNDCPGPGQDTDCRECESGSFTAMENFLPGCLSCSKCRKEMGQVEISSCTVDRDTVCGCRKNQYRHYWSENLFQCFNCSLCLNGTVHLSCQENQNTVC
notes: as for B14
B22: TNFRI126-S36 (receptor)
chain: MDSVCPQGKYIHPQNNSICCTKCHKGTYVYNDCPGPGQDTDCRECESGSFTAMENFLPACLSCSKCRKEMGQVEISSCTVDRDTVCGCRKNQYRHYWSENLFQCFNCSLCLNGTVHLSCQEKQNTVC
notes: as for B14
B23: TNFRI126-S41 (receptor)
chain: MDSVCPQGKYIHPQNNSICCTKCHKGTYVYNDCPGPGQDTDCRECESGSFTAHENFLPACLSCSKCRKEMGQVEISSCTVDRDTVCGCRKNQYRHYWSENLFQCFNCSLCLNGTVHLSCQEKQNTVC
notes: as for B14
B24: TNFRI126-S31 (receptor)
chain: MDSVCPQGKYIHPQNNSICCTKCHKGTYVYNDCPGPGQDTDCRECESGSFTAIENFLPACLSCSKCRKEMGQVEISSCTVDRDTVCGCRKNQYRHYWSENLFQCFNCSLCLNGTVHLSCQEKQNTVC
notes: as for B14
B25: TNFRI126-S48 (receptor)
chain: MDSVCPQGKYIHPQNNSICCTKCHKGTYVYNDCPGPGQDTDCRECESGSFTAIPNFLPGCLSCSKCRKEMGQVEISSCTVDRDTVCGCRKNQYRHYWSENLFQCFNCSLCLNGTVHLSCQEKQNTVC
notes: as for B14
B26: TNFRI126-S62 (receptor)
chain: MDSVCPQGKYIHPQNNSICCTKCHKGTYVYNDCPGPGQDTDCRECESGSFTAIENFLPGCLSCSKCRKEMGQVEISSCTVDRDTVCGCRKNQYRHYWSENLFQCFNCSLCLNGTVHLSCQEQQNTVC
notes: as for B14
B27: TNFRI126-S56 (receptor)
chain: MDSVCPQGKYIHPQNNSICCTKCHKGTYVYNDCPGPGQDTDCRECESGSFTAMENFLPACLSCSKCRKEMGQVEISSCTVDRDTVCGCRKNQYRHYWSENLFQCFNCSLCLNGTVHLSCQEQQNTVC
notes: as for B14

These binders were tested against T1, TNF-α (UniProt P01375 77-233, limits assumed) (assay: cell-based or functional assay).
T1 sequence (P01375 77-233 limits assumed): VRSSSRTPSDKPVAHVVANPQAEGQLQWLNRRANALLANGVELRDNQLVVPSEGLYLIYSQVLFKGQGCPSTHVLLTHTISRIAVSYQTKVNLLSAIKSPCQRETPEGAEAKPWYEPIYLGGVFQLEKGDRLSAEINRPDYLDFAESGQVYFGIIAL

Point of comparison: B2, “Relative Activity (Cytotoxicity-neutralizing activity) (fold)” value 196 fold. Against it:
- B1 — higher, 242 fold

Each binder was assayed against T1, TNF-α (assay: competition ELISA: sample vs plate-bound TNFRI190 for TNF-α, from IC50, relative to wild-type TNFRI126).
Experimental: (§1) Each well was washed three times with 300 μL of washing buffer (0.05% Tween-20, PBS, pH 7.4) and incubated at room temperature for 2 hours with 300 μL of a blocking buffer (5% skim milk, PBS, pH 7.4). Then, each well was washed as mentioned above. A sample of interest was diluted to concentrations of 500 nM, 125 nM, 31 nM, 7.8 nM, 1.9 nM, 0.48 nM, 0.12 nM, and 0.03 nM in series and loaded in an amount of 100 μL into each well in duplicate. To each well was added 100 μL of 50 ng/ml TNF-α, followed by incubation at room temperature for 2 hours. After the wells were washed with a washing buffer, 100 μg/mL anti-TNF-α antibody solution was diluted 1/1000, added in an amount of 100 μL per each well, and incubated at room temperature for 2 hours. After the plates were washed with a washing buffer, a substrate was added in an amount of 100 μL to each well and reacted at room temperature for 15 min. In each well, 100 μL of the substrate 3,3′,5,5′-tetramethylbenzidine (RnD, Cat. No: DY999) was reacted at room temperature for 15 min, followed by adding 50 μL of 1.0 M sulfuric acid (Samchun Chemical, Cat. No: 52129) to each well to stop the reaction.
Affinity of Met-TNFRI and Met-TNFRI mutants for TNF-α was determined by measuring an absorbance change with concentration and evaluating IC₅₀ value by measuring an absorbance change with concentration.

Point of comparison: B3, “Affinity (%)” value 100%. Against it:
- B4 — higher, 894%
- B5 — higher, 682%
- B6 — higher, 1430%
- B7 — higher, 1140%
- B8 — higher, 1060%
- B9 — higher, 952%
- B10 — higher, 1400%
- B11 — higher, 782%
- B12 — higher, 1100%
- B13 — higher, 435%

Biological target: T1, TNF-α
Test: as above
Remark: another data set of the same source
Experimental: as §1
The affinity of the Met-TNFRI for TNF-α was assayed using the same procedure as in [Experimental Example 1]

Point of comparison: B26, “Relative Affinity for Ligand (%)” value 543%. Against it:
- B3 — lower, 100%
- B14 — lower, 522%
- B15 — lower, 397%
- B16 — lower, 448%
- B17 — lower, 501%
- B18 — lower, 465%
- B19 — lower, 463%
- B20 — lower, 412%
- B21 — lower, 486%
- B22 — lower, 489%
- B23 — lower, 432%
- B24 — lower, 457%
- B25 — lower, 477%
- B27 — higher, 602%
